B1: deglycosylated mIFN-α4: recombinant mouse interferon α4 (GenBank NP_034634) expressed in Pichia pastoris, glycosyl groups removed with glycosidase (protein, UniProt P07351 25-186, looked up)
Interferon alpha-4: CDLPHTYNLGNKRALTVLEEMRRLPPLSCLKDRKDFGFPLEKVDNQQIQKAQAILVLRDLTQQILNLFTSKDLSATWNATLLDSFCNDLHQQLNDLKACVMQEPPLTQEDSLLAVRTYFHRITVYLRKKKHSLCAWEVIRAEVWRALSSSTNLLARLSEEKE
modifications: deglycosylated
notes: recombinant mouse interferon α4 (GenBank NP_034634) expressed in Pichia pastoris, glycosyl groups removed with glycosidase
B2: PEG-mIFN-α4: deglycosylated recombinant mouse interferon α4 modified with 40kD Y-type polyethylene glycol succinimide ester (YPEG-NHS); SEQ ID NO: 6 (protein)
chain: B1 Interferon alpha-4
modifications: 40kD Y-type PEG; deglycosylated; peginterferon murine alpha 4

Assays:
[1] = system: transplanted liver cancer H22; test: Prevention of recurrence of transplanted liver cancer H22 in mice; type: in vivo, BALB/c mice; conditions: for anticancer activity / prevention of tumor recurrence (conclusion): H22 recurrence simulated with low-density tumor inoculation; for Tumor incidence: tumor volume ≥ 62.5 mm^3 positive, then stopped 103 days, PEG-mIFN-α4 1 μg/mouse s.c.
From the text: After tumor treatment, the tumor load in patient's body is relatively low, so a low tumor grafting volume is used to simulate the state after tumor treatment. […] Three days after tumor inoculation, they were randomly divided into the following experiment groups: PEG-mIFN-α4 group (N=28, 14 females, 14 males). PEG-mIFN-α4 combined with gemcitabine group (N=28, 14 females, 14 males), normal saline control group (N=28, 14 females, 14 males), and gemcitabine only group (N=28, 14 females, 14 males).
PEG-mIFN-α4 was administered by subcutaneous injection on the back of the neck, with a dose of 1 microgram per mouse. Administration began on the day after grouping. In the PEG-mIFN-α4 group, PEG-mIFN-α4 was administered once a week for 9 weeks, and then stopped for 103 days. In the PEG-mIFN-α4 combined with gemcitabine group, PEG-mIFN-α4 and gemcitabine were administered once a week for 9 weeks, and then stopped for 103 days. In the gemcitabine alone group, gemcitabine was administered once a week for 9 weeks, and then stopped for 103 days. The normal saline control group was given an equal volume of normal saline. Gemcitabine was injected intraperitoneally at a dose of 60 mg/kg.
(§1) The tumor incidence of each group was calculated when the tumor volume was greater than or equal to 62.5 mm^3, which was determined as positive for tumor occurrence.

[2] = system: transplanted colorectal cancer CT26; test: Prevention of recurrence of transplanted colorectal cancer CT26 in mice; type: in vivo, BALB/c mice; conditions: for anticancer activity / prevention of tumor recurrence (conclusion): CT26 recurrence simulated with low-density tumor inoculation; for survival rate during the observation period / Tumor incidence: gemcitabine 60 mg/kg i.p.; for Tumor incidence: tumor volume ≥ 62.5 mm^3 positive, then stopped 56 days
Protocol: On the day after tumor inoculation, they were randomly divided into the following experiment groups: PEG-mIFN-α4 only group (N=20, 10 females and 10 males), normal saline control group (N=20, 10 females and 10 males), gemcitabine only group (N=20, 10 females and 10 males), and PEG-mIFN-α4 combined with gemcitabine group (N=20, 10 females and 10 males).
PEG-mIFN-α4 was administered by subcutaneous injection on the back of the neck, with a dose of 1 microgram per mouse. Administration began on the day after grouping. In the PEG-miFN-α4 only group, PEG-mFN-α4 was administered once a week for 12 times, and then stopped for 56 days. In the PEG-mIFN-α4 combined with gemcitabine group, both PEG-mIFN-α4 and gemcitabine were administered once a week for 12 consecutive times, and then stopped for 56 days. In the gemcitabine only group, gemcitabine was administered once a week for 12 times, and then stopped for 56 days. The normal saline control group was given an equal volume of normal saline. Gemcitabine was administered by intraperitoneal injection at a dose of 60 mg/kg.
as §1

[3] = system: mouse fibroblast/encephalomyocarditis vinis (L929/EMCV); test: L929/EMCV cytopathic inhibition method, specific activity; type: cell-based; conditions: commercial mIFN-α4 (R&D) as the standard
Protocol: (§2) The bacterial endotoxin content of the deglycosylated mIFN-α4 stock solution was determined by the Limulus reagent method as lower than 60 EU/mg, specific activity was determined as 5.4×10^8 U/mg by using the commercial mIFN-α4 (R&D, catalog number 12115-1) as the standard, and by using the mouse fibroblast/encephalomyocarditis vinis (L929/EMCV) cytopathic inhibition method.
as §2, with “PEG-mIFN-α4” for “deglycosylated mIFN-α4”, “15 EU/mg. Specific” for “60 EU/mg, specific”, “6.1×10^6” for “5.4×10^8”

[4] = design: species or system BALB/c mice; conditions: mouse, in vivo, sc
From the text: Note: In the pharmacokinetic analysis, for samples with blood concentration lower than the quantification lower limit, the sample before the peak blood concentration was counted as 0, and the sample after the peak was expressed as BLQ.

[5] = by day 166 after tumor inoculation, once a week for 9 weeks, gemcitabine 60 mg/kg i.p.
[6] = by day 134 after tumor inoculation, once a week for 12 times, PEG-mIFN-α4 1 μg/mouse s.c.
[7] = by day 134 after tumor inoculation, once a week for 12 times, PEG-mIFN-α4 1 μg/mouse s.c., listed as gemcitabine

Row | Molecule | anticancer activity / prevention of tumor recurrence (conclusion) [1] | Median survival time (time after tumor inoculation, days) [1, 5] | Tumor incidence [1, 5] | Tumor incidence ([1]; by day 166 after tumor inoculation, once a week for 9 weeks, gemcitabine 60 mg/kg i.p., listed as gemcitabine) | anticancer activity / prevention of tumor recurrence (conclusion) [2] | survival rate during the observation period [2, 6] | survival rate during the observation period [2, 7] | Tumor incidence [2, 6] | Tumor incidence [2, 7] | specific activity [3] | Cl_F—obs [4] | T1/2 [4] | Tmax [4] | Vz_F—obs [4] | elimination half-life (T1) [4] | plasma concentration peak time (Tmax) [4] | tumor incidence compared with normal saline control group ([1]; H22, day 166) | tumor incidence compared with normal saline control group ([2]; CT26, day 134) | Median survival time (time after tumor inoculation, days) [2, 6]
1 | Nc1ccn([C@@H]2O[C@H](CO)[C@@H](O)C2(F)F)c(=O)n1 [Gemcitabine, reference compound] | could effectively prevent tumor recurrence | 93.0 days | 57.1% | 57.1% | could effectively prevent tumor recurrence | period: 55.0% | 55.0% | 50.0% | 50% |  |  |  |  |  |  |  |  |  | 
2 | B1 |  |  |  |  |  |  |  |  |  | 5.4×10^8 U/mg |  |  |  |  |  |  |  |  | 
3 | B2 | could effectively prevent tumor recurrence |  | 32.1% |  | could effectively prevent tumor recurrence |  |  | 95% |  | 6.1×10^6 U/mg | 0.07 mL/h | 28.3 h | 24.0 h | 2.91 mL | 28.3 h | 24 h | lower | lower | 68.5 days

Reference: patent US20240307496A1, “METHOD AND PHARMACEUTICAL COMBINATION FOR PREVENTING CANCER RECURRENCE” (priority 2021, published 2024)
